From publication PMC6748273

What was measured:
Experiment in all cases: purified protein
Settings in all cases: 1.2 mM L-Trp, 25 mM Tris, 5 mM MgCl2, 50 mM KCl, pH 7.5, 35 °C
purified protein [1] = substrate: C/C(Br)=C/COP(=O)(O)OP(=O)(O)O
purified protein [2] = substrate: CC(C)=CCOP(=O)(O)OP(=O)(O)O
purified protein [3] = substrate: CC=CCOP(=O)(O)OP(=O)(O)O
purified protein [4] = substrate: CCC(=CCOP(=O)(O)OP(=O)(O)O)CC
purified protein [5] = substrate: COc1cccc(COP(=O)(O)OP(=O)(O)O)c1
purified protein [6] = substrate: COc1ccccc1COP(=O)(O)OP(=O)(O)O
purified protein [7] = substrate: O=P(O)(O)OP(=O)(O)OCC=C1CCCC1
purified protein [8] = substrate: O=P(O)(O)OP(=O)(O)OCc1ccc(Br)cc1
purified protein [9] = substrate: O=P(O)(O)OP(=O)(O)OCc1ccc(Cl)cc1
purified protein [10] = substrate: O=P(O)(O)OP(=O)(O)OCc1ccc(F)cc1
purified protein [11] = substrate: O=P(O)(O)OP(=O)(O)OCc1ccccc1

B1: FgaPT2 (Aspergillus fumigatus Af293) (protein)
chain: MKAANASSAEAYRVLSRAFRFDNEDQKLWWHSTAPMFAKMLETANYTTPCQYQYLITYKECVIPSLGCYPTNSAPRWLSILTRYGTPFELSLNCSNSIVRYTFEPINQHTGTDKDPFNTHAIWESLQHLLPLEKSIDLEWFRHFKHDLTLNSEESAFLAHNDRLVGGTIRTQNKLALDLKDGRFALKTYIYPALKAVVTGKTIHELVFGSVRRLAVREPRILPPLNMLEEYIRSRGSKSTASPRLVSCDLTSPAKSRIKIYLLEQMVSLEAMEDLWTLGGRRRDASTLEGLSLVRELWDLIQLSPGLKSYPAPYLPLGVIPDERLPLMANFTLHQNDPVPEPQVYFTTFGMNDMAVADALTTFFERRGWSEMARTYETTLKSYYPHADHDKLNYLHAYISFSYRDRTPYLSVYLQSFETGDWAVANLSESKVKCQDAACQPTSLPPDLSKTGVYYSGLH
- kcat (purified protein [1]): 0.00783 ± 0.000167 s⁻¹
- kcat/Km (purified protein [1]): 21.7 ± 1.67 M⁻¹ s⁻¹
- kcat (purified protein [2]): 0.833 ± 0.0167 s⁻¹
- kcat/Km (purified protein [2]): 5820 ± 467 M⁻¹ s⁻¹
- kcat (purified protein [3]): 0.0095 ± 0.000333 s⁻¹
- kcat/Km (purified protein [3]): 65 ± 6.67 M⁻¹ s⁻¹
- kcat (purified protein [4]): 0.108 ± 0.00167 s⁻¹
- kcat/Km (purified protein [4]): 283 ± 16.7 M⁻¹ s⁻¹
- kcat (purified protein [5]): 0.00283 ± 8.33e-05 s⁻¹
- kcat/Km (purified protein [5]): 3.83 ± 0.333 M⁻¹ s⁻¹
- kcat (purified protein [6]): 0.0322 ± 0.000833 s⁻¹
- kcat/Km (purified protein [6]): 56.7 ± 3.33 M⁻¹ s⁻¹
- kcat (purified protein [7]): 0.084 ± 0.003 s⁻¹
- kcat/Km (purified protein [7]): 267 ± 33.3 M⁻¹ s⁻¹
- kcat (purified protein [8]): 0.00223 ± 5e-05 s⁻¹
- kcat/Km (purified protein [8]): 7 ± 0.667 M⁻¹ s⁻¹
- kcat (purified protein [9]): 0.00327 ± 6.67e-05 s⁻¹
- kcat/Km (purified protein [9]): 7.67 ± 0.5 M⁻¹ s⁻¹
- kcat (purified protein [10]): 0.0046 ± 6.67e-05 s⁻¹
- kcat/Km (purified protein [10]): 11.5 ± 0.667 M⁻¹ s⁻¹
- kcat (purified protein [11]): 0.0227 ± 0.000333 s⁻¹
- kcat/Km (purified protein [11]): 103 ± 5 M⁻¹ s⁻¹
